The text below walks through data of US20220064331A1 (Genentech, published 2022).

T1: rhesus monkey KLB (+N-ter FLAG) (rhesus monkey, UniProt Q86Z14 53-992 (human entry))
T1 construct: expressed from KLB cDNA on HEK293T cells and read by FACS
T1 chain: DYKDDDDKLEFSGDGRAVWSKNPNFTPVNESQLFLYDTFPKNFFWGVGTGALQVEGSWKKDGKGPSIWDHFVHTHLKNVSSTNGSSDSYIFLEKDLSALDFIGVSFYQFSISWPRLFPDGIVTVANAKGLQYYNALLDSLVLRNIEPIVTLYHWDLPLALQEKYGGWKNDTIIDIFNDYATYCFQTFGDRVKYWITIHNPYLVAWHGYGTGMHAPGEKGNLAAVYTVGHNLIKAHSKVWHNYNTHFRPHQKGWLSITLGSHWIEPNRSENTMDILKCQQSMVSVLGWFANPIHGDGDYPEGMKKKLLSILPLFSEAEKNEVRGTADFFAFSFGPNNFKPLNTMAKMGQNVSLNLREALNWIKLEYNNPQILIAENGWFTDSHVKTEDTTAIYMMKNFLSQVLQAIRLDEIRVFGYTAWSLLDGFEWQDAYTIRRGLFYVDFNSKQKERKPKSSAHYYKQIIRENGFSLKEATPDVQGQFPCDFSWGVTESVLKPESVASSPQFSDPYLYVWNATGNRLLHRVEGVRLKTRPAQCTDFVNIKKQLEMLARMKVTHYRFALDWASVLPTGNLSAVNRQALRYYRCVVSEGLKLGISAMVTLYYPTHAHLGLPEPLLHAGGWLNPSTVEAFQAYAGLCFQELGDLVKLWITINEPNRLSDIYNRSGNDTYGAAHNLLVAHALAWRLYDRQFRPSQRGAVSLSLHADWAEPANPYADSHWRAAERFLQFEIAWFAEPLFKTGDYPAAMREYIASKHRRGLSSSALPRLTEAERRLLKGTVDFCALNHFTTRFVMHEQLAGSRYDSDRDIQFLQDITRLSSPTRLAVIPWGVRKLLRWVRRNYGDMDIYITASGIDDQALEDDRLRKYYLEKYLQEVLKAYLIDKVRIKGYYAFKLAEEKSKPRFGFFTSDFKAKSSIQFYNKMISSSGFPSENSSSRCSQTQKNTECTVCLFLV

T2: rat KLB (+N-ter FLAG) (rat, UniProt Q99N32 53-989 (mouse entry))
T2 construct: expressed from KLB cDNA on HEK293T cells and read by FACS
T2 chain: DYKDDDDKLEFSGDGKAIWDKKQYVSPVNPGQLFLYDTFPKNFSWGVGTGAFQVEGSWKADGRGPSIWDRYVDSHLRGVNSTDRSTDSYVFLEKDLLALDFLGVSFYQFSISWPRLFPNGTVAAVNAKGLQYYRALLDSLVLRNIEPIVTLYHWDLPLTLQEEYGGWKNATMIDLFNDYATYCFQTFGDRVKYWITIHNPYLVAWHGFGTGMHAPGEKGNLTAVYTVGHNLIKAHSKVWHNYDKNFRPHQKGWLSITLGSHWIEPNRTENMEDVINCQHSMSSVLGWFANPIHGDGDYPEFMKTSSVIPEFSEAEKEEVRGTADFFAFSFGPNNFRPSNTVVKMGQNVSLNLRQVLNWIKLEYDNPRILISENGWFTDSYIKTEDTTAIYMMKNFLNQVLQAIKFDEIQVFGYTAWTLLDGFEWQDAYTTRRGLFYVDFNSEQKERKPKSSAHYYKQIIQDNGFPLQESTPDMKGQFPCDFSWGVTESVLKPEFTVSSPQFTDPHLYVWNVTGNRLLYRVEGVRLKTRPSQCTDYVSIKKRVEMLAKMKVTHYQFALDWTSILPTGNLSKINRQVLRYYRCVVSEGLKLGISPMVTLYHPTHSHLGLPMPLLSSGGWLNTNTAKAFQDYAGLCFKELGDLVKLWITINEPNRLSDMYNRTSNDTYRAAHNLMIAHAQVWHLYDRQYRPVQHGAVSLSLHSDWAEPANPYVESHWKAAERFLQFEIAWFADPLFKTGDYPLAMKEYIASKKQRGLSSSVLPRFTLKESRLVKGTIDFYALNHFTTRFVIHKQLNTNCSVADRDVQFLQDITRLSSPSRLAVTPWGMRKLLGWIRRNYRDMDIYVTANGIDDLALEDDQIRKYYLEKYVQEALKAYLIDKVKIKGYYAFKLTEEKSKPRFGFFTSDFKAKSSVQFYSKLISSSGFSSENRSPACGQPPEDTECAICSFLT

B1: 14C6 (antibody, V domains shown)
VH: QIQLQQSGAELMKPGASVRMSCKASGYTFSSYWIEWVKQRSGHGLEWIGEIFPGGGSTIYNENFRDKATFTADTSSNTAYMQLSSLTSEDSAVYFCARRGYYDAAWFDYWGQGTLVTVSA
VL: QIVLTQSPAIMSASPGERVTLTCSASSSLSSSYLYWYQQKPGSSPKLWIYGASNLASGVPGRFSGSGSGTSYSLTISSMEAEDAASYFCHQWSSYPLTFGSGTKLELK
notes: murine hybridoma-derived anti-KLB antibody
B2: 11F1 (antibody, V domains shown)
VH: EVQLVESGGGLVKPGGSLKLSCAPSGFTFSSYGISWVRQTPEKRLEWVATVSSGGRYTYYPDSVKGRFTISRDNAENTLYLQMSSLRSEDTAMYYCTRGGDGYALDYWGQGTSVTVSS
VL: DIQMTQTTSSLSASLGDRVTIICSASQVISNYLNWYQQKPDGTVKLLIYFTSSLRSGVPSRFSGSGSGTDYSLTISNLEPEDVATYFCQQYSKLPWTFGGGTKLELK
notes: as for B1
B3: 12B8 (antibody, V domains shown)
VH: QIQLVQSGPELKKPGETAKISCKASGYAFSNYGMNWVKQAPGKDLKWMGWIDTDTGEATYTDDFKGRFVFSLETSASTAYLQINNLKNEDMATYFCAREEYGLFGFPYWGHGTLVTVSA
VL: DIQMTQSSSSFSVSLGDRVTITCKASEDIYNRLAWYQQKPGSAPRLLISAATSLETGVPSRFSGSGSGKDYTLSITSLQTEDVATYYCQQYWSNPLTFGAGTKLEIK
notes: as for B1
B4: 8C5 (antibody, V domains shown)
VH: QVQLKQSGPGLVQPSQSLSVACTVSDFSLTTYGVHWVRQSPGKGLEWLGVIWSGGSTDYNAAFISRLTISKDNSKSQVFFKMNSLQTTDTAIYYCARDYGSTYVDAIDYWGQGTSVTVSS
VL: DIVLTQSPTSLAVSLGQRATISCRASESVESYGNRYMTWYQQKPGQPPKLLIYRAANLQSGIPARFSGSGSRTDFTLTIDPVEADDVATYYCQQSNEDPWTFGGGTKVEIK
notes: murine hybridoma-derived anti-KLB antibody; also called KLBmAb1
B5: 46C3 (antibody, V domains shown)
VH: EVQLQQSGAELVKPGASVKLSCTASDFNIIDTYIHWVKQRPEQGLEWIGRIDPANGNTKYDPKFQDKAALTSDTDSNTAYLLFNSLTSEDTAVYYCARGTSYSWFAYWGQGTLVSVSA
VL: AVLMTQTPLSLPVSLGDQASISCRSSQNIVHSDGNTYLEWYLQKPGQSPKLLIYKVSNRFSGVPDRFSGSGSGRDFTLKISRVEAGDLGVYYCFQGSHVLTFGAGTRLELK
notes: as for B1
B6: 8E1 (antibody, V domains shown)
VH: EVQLQQSGAELVKPGASVKLSCTAADFNIKDTYMHWVKQRPEQGLEWIGRIDPSNGNAKYDPKFQGKASITADSSSNTAYLHLSSLTSEDTAVYYCASRALGNGYALGYWGQGTSVTVSS
VL: DIQMTQSSSYLSVSLGGSVTITCKASDHINNWLAWYQQKPGNAPRLLIYGTTNLETGVPSRFSGSGSGRDYILSITSLQSEDVASYYCQQYWNTPFTFGSGTKLEIK
notes: as for B1
B7: 25F7 (antibody, V domains shown)
VH: EVQLQQSGAELLKPGASVRLSCTASGFNIQDTFTHWVRQRPEQGLEWIGRIDPSNGNTKYDPKFQGKAKILADTSSNTAYLQLIGLTSEDTAVYYCASRALGNGYAMDYWGQGTSVTVSS
VL: B6 VL with S18R, Y49S, T51A, T52S, V58I, R69K, I72T, S74T, S80T, S85T
notes: as for B1
B8: 8H7 (antibody, V domains shown)
VH: QVQLQQPGAEIVKPGASVRLSCKASGYSFTSYWIHWVKQRPGQGLEWIGEIDPSVSNSNYNQKFKGKATLTADKSSSTAYMQLSGLTSEDSAVYFCVRLGVMVYGSSPFWFAYWGQGTLVTVSA
VL: DIVMTQSQKFMSTSVGDRVSITCKASQFVSDAVAWYQQKPGQSPKLLICSASYRYTGVPDRFTGSGSGTDFTFTISSVRTEDLAVYYCQQHYIVPYTFGGGTTLEIE
notes: as for B1
B9: 21H3 (antibody, V domains shown)
VH: B8 VH
VL: B8 VL
notes: as for B1
B10: 14E6 (antibody, V domains shown)
VH: EVPLQQSGPELVKPGATVKISCKPSGDTFTEYTMNWVRQSHGKSLEWIGGINPNNGETSYNQKFKGKATLTVDKSSSTAFMDLRILTSEDSAVYFCARKTTNYWGQGTTLIVSS
VL: DIQMTQSPSSLSASLGERVSLTCRASQEISGYLSWLQQKPDGTIKRLIYAASTLDSGVPRRFSGSRSGSDYSLTISSLESEDFADYYCLQYGSYPWTFGGGTKLELK
notes: as for B1
B11: 5F8 (antibody, V domains shown)
VH: EVQLQQSGTELVRPGASVKLSCTSSDFNIKDTYIHWVKQRPEQGLDWLGRIDPANGNTKYDPKFQGKAAMTSDTSSNTAYLRLSSLTSEDTAVYYCASSGNYGAMDYWGQGTSVTVSS
VL: ESVLTQSPALMSASLGEKVTMTCRASSSVNHMYWYQQKSDASPKLWIYYTSTLAPGVPARFSGSGSGNSYSLTISSMEGEDAATYYCQQFTISPSMYTFGGGTKLEIK
notes: as for B1
B12: 24A1 (antibody, V domains shown)
VH: QVQLKQSGAELVRPGTSVTLSCKASGYTFTDYEMHWMKQTPVYGLEWIGAIWPENADSVYNQKFKGKVTLTADKSSSTAYMDLRSLTSEDSAVYYCTREGGNYWGQGTTLTVSS
VL: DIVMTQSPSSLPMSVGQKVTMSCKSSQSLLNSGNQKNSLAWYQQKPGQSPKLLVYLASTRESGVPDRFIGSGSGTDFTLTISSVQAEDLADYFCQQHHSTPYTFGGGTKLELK
notes: as for B1

Substitutions are numbered along the chain they refer to.

The first assay concerns the target T1, rhesus monkey KLB (+N-ter FLAG). The experiment in a line: FACS on transfected HEK293T cells. The protocol: (§1) Species cross reactivity of the disclosed anti-KLB antibodies were analyzed by FACS analysis using KLB cDNA from mouse, rat, rabbit, cynomolgus monkey and rhesus monkey cloned into pRK mammalian expression vectors transiently transfected into HEK293T cells. The KLB extracellular domain polypeptide sequences that were expressed are as follows: […]
Regarding B1, the binding result was “binds”.

B2: the binding result is “binds”.

Turning to B3, the binding result is listed as “binds”.

In the case of B4, the binding result is on record as “binds”.

Consider B5, for which the binding result is recorded as “no binding”.

Take B6: the binding result is “binds”.

Take B7: the binding result is “binds”.

Regarding B8, the binding result is reported as “binds”.

With B9, the binding result is “binds”.

Regarding B10, the binding result is recorded as “binds”.

Turning to B11, the binding result is recorded as “binds”.

With B12, the binding result is on record as “binds”.

A further assay has as its target T2, rat KLB (+N-ter FLAG). The experiment in a line: FACS on transfected HEK293T cells. Here is the method: as §1
As for B1, the binding result was “binds”.

Turning to B2, the binding result is given as “no binding”.

With B3, the binding result is “no binding”.

For B4, the binding result is listed as “binds”.

Regarding B5, the binding result is “no binding”.

Regarding B6, the binding result is on record as “no binding”.

Take B7: the binding result is reported as “no binding”.

As to B8, the binding result was “no binding”.

For the molecule B9, the binding result is “no binding”.

Take B10: the binding result is given as “binds”.

As to B11, the binding result is “no binding”.

B12: the binding result is “binds”.

Another assay concerns the target T3, human KLB expressed on cells (human, UniProt Q86Z14 53-1044).
T3 construct: on transfected 293 / HEK293 cells; also called hKLB; beta-Klotho
In words: FACS on 293 cells expressing hKLB, antibody at 0.8 µg/ml, median shift.
As for B1, the binding result is “binds”.

For B3, the binding result was “binds”.

Turning to B4, the binding result is recorded as “binds”.

Take B6: the binding result is “binds”.

Take B7: the binding result is “binds”.

Take B8: the binding result is recorded as “binds”.

As for B11, the binding result is “binds”.

As to B12, the binding result is on record as “binds”.
